# Measured values published in publication PMC7269092.
# Target: NLuc-NS2B-E66stop (DENV2)
# Assay: split reporter
substance,measurement,value
MBP-NS3 (from UniProt P29990 1476-2093) (enzyme),IC50,2.5 µM
